The values below come from the nanobody polyreactivity screen of Harvey et al. (2022).

The series is described as follows: yeast display, Sf9 membrane polyspecificity reagent, FACS + sequencing; frameworks hold sequencing errors. An outline of the steps: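 Using colony PCR, genes from sorted yeast display clones were amplified, then sequenced on MiSeq at 2 × 250 and filtered by CDR length. The clones had been stained with 10% biotinylated, detergent-solubilized Sf9 membrane reagent for 1 hour at 4 °C and sorted by FACS into low and high (top ~1%) gates on anti-HA and streptavidin fluorescence. Polyreactivity labels come from the gate of origin.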
Turning to “QVQLVESGGGLVQAGGSLRLSCAASGSTFVNYVMGWYRPAPGKERELVAAISRRGTSTRYADSVKGRFTISRDNAKNTVYLQMNSLKPEDTAVYYCAATRYVGVTGYGYWGQGTQVTVSS”, the “polyreactivity (PSR sort gate)” value is “high polyreactivity”.
The value for “QVQLVESGGGLVQAGGSLRLSCAASGSTFVPNAMGWYRQAPGKERELVAAISYSGGTTYYADSVKGRFTISRDNAKNTVYLQMNSLKPEDTEVYYCAARSKGAAAILDDYWGQGTQVTVSS” was “low polyreactivity”; that for “QVQLVESGGGLVQAGGSLRLSCAASGSTFVPNAMGWYRQSPGKERELVAAISRSAGSTYYADSVKGRFTISRDNAKNTVYLQMNSLKPEDTAVYYCAADSLTYIAYDYWGQGTQVTVSS” was “high polyreactivity”; that for “QVQLVESGGGLVQAGGSLRLSCAASGSTFVPYAIGWYRQAPGKERELVASITYSGGSTSYADSVKGRFTISRDNAKNTVYLQMNSLKPEDTAVYYCAAVPWVVYSGYDYWGQGTQVTVSS” was “low polyreactivity”.
In the case of “QVQLVESGGGLVQAGGSLRLSCAASGSTFVPYAMGWYRQAPGKERELVAAITTSGGNTYYADSVKGRFTISRDNAKNTVYLQMNSLKPEDTAVYYCAADTYRRFDYWGQGTQVTVSS” it was “low polyreactivity”; in that of “QVQLVESGGGLVQAGGSLRLSCAASGSTFVPYTMGWYRQAPGKERELVAAISGSGGTDYADSVKGRFTISRDNAKNTVYLQMNSLKPEDTAVYYCAADPQYWRFYSYGGGDDYWGQGTQVTVSS”, “low polyreactivity”.
On to “QVQLVESGGGLVQAGGSLRLSCAASGSTFVQNAMGWYRQAPGKERELVAAISRTGGSTYYADSVKGRFTISRDNAKNTVYLQMKSLIPEDTAVYYCATRPPHYSWPKIIEFGSWGQGSQVTVSS”, for which the “polyreactivity (PSR sort gate)” value is on record as “high polyreactivity”.
The value for “QVQLVESGGGLVQAGGSLRLSCAASGSTFVQYAKGWSRQAPGKERELVATISKSGGDTYADSVKGRFTISRDNAKNTVYLQMNSLKPEDTAVYYCAAGYTWVSHRYRYAYNYWGQGTQVTVSS” was “low polyreactivity”; that for “QVQLVESGGGLVQAGGSLRLSCAASGSTFVQYAMGWYRQAPGKERELVAAITSGGRTNYADSVKGRFTISRDNAKNTVYLQMNSLKPEDTAVYYCAARYGSNSPRGYEYYYWGQGTQVTVSS” was “low polyreactivity”.
Take “QVQLVESGGGLVQAGGSLRLSCAASGSTFVQYDMGWYRQAPGKERELVAGITRTGSTYADSVKGRFTISRDNAKNTVYLQMNSLKPEDTADYYCAVYVSGYAQTSRYDYWGQGTQVTVSS”: the “polyreactivity (PSR sort gate)” value was “low polyreactivity”.
The value for “QVQLVESGGGLVQAGGSLRLSCAASGSTFVRNAMGWYRQAPGKERELVAGISTGDNTYYADSVKGRFTISRDNAKNTVYLQMNSLKPEDTAVYYCNADVYTEYDYWGQGTQVTVSS” was “low polyreactivity”; that for “QVQLVESGGGLVQAGGSLRLSCAASGSTFVRNAMGWYRQEPGKERELVANISSGGGTKYADSVKGRFTISRDNAQNTVYLQMNSLKPEDTAVYYCAKRTIYSGRFYYWGQGTQVTVSS” was “high polyreactivity”.
Consider “QVQLVESGGGLVQAGGSLRLSCAASGSTFVRNARGWYRQAPGKERELVAAISRSGGRTYYADSVKGRFTISRDNAKNTVYLQMNSLKPEDTAVYYCAADGKSGYDYWGQGTQVTVSS”, for which the “polyreactivity (PSR sort gate)” value is “high polyreactivity”.
Consider “QVQLVESGGGLVQAGGSLRLSCAASGSTFVRYAMGWYRLAPGKERELVAAIAKSGGSTYYADSVKGRFTISRDIAKNTVYLQMNSLKPEDTAVDYCNSDVYKNSKVRIMGYWGLGTQVTVSS”, for which the “polyreactivity (PSR sort gate)” value is “low polyreactivity”.
The value for “QVQLVESGGGLVQAGGSLRLSCAASGSTFVRYAMGWYRQAPGKERELVAAISKSGGSTYYADSVKGRFTISRDNAKNTVYLQMNSLKPEDTAVYFCNADVYKNSKFRIMGYWGQGTQVTVSS” was “low polyreactivity”.
Take “QVQLVESGGGLVQAGGSLRLSCAASGSTFVRYAMGWYRQAPGKERELVAAISNGGNTYYADSVKGRFTISHDNAKNTVYLQMNSLKPEDTAVYYCNKGYVYGHEYWGQGTQVTVSS”: the “polyreactivity (PSR sort gate)” value is “high polyreactivity”.
The value for “QVQLVESGGGLVQAGGSLRLSCAASGSTFVRYVMGWYRQAPGKERELVAAIRYRGGSTYYADSVKGRFTISRDNAKNTVYLQMNSLKPEDTAVYYCATDWRRYTKQYGYWGQGTQVSVSS” was “high polyreactivity”; that for “QVQLVESGGGLVQAGGSLRLSCAASGSTFVSNAMGWYRPAPGKERELVAAISSSGGRTSYADSVKGRFTISRDNAKNTVYLQMNSLKPEDTAVYYCAARFKSVDYVQYYYWGQGTQVTVSS” was “low polyreactivity”; that for “QVQLVESGGGLVQAGGSLRLSCAASGSTFVSNAMGWYRQAPGKERELVAGITFSGGSTYYADSVKGRFTISRDNAKNTVYLQMNSLKPEDTAVYYCAAEFHWWYAGYDYGYWGQGTQVTASS” was “low polyreactivity”.
In the case of “QVQLVESGGGLVQAGGSLRLSCAASGSTFVSSAMGWYRQAPGKERELVARITWNGGNTYADSVKGRFTISRDNAKNTVYLQMNSLKPEDTAVYYCSTDYVVGFYYWGQGTQVTVSS” it was “low polyreactivity”; in that of “QVQLVESGGGLVQAGGSLRLSCAASGSTFVSYAMGWYRQAPGKEREFVAAITWSGGSTYYADSVKGRFTISRDNAKNTVYLQMNRLKPEDTAVYYFARPYRGSPRYYYWGQGTQVTVSS”, “high polyreactivity”; in that of “QVQLVESGGGLVQAGGSLRLSCAASGSTFVTNAMGWYSQAPGKEREFVAAISNSSGSTYYADSVKGRFTISRDNAKNTVYLQMNSLKPEDTAVYYCNATPDDWLQEDYWGQGTQVTVSS”, “low polyreactivity”.
The value for “QVQLVESGGGLVQAGGSLRLSCAASGSTFVTYAMGWYRQAPGKERELVAAITTSGGSTYYADSVKGRFTISRANAMNTVYLQMNSLKPEDTAVYYCIAGFEYTQEYDYWGQGTQVTVSS” was “low polyreactivity”.
On to “QVQLVESGGGLVQAGGSLRLSCAASGSTFVVNAMAWYRQAPGKERELVAVISYSGDSTYYADSVKGRFTISRDNAKNTVYLQMNSLKPEDSAVYYCNADYYDESNWGQGTQVTVSS”, for which the “polyreactivity (PSR sort gate)” value was “low polyreactivity”.
The value for “QVQLVESGGGLVQAGGSLRLSCAASGSTFVVNTMGWYRQAPGKERELVATISDIGSSTDYADSVKGRFTISRDNAKNTVYLQMNSLKPEDTAVYYCAASIDDIITDDFYWVSWAYYYWGQGTQVTVSS” was “low polyreactivity”; that for “QVQLVESGGGLVQAGGSLRLSCAASGSTFVVNVMGWYRQAPGNEMELVAAITYRSGSTYYADSVKGRFTISRDNEKNTVYLQMNSLNPEDSAVYYCAAGYYSRYYEAFEYYYWGQGTQVTVSS” was “high polyreactivity”.
The value for “QVQLVESGGGLVQAGGSLRLSCAASGSTFVVYAMGWSRQAPGKERELVAAISTSDTSTYYADSVKGRFTISRDNAKNTVYLQMNSLKPEDTAVYDCAADGTYVYINEYEYWGQGTQVTVSS” was “low polyreactivity”.
In the case of “QVQLVESGGGLVQAGGSLRLSCAASGSTFVVYAMGWYRQAPGKERELVAAISYRAGITYYADSVKGRFTISRDNAKNTVYLQMNSLKPEDTAVYYWAADRYYGVGSGYWGQGTQVTVSS” it was “high polyreactivity”; in that of “QVQLVESGGGLVQAGGSLRLSCAASGSTFVVYAMGWYRQAPGKERELVAAITTSDDSTYYADSVKGRFTISRDNAKNTVYLQMNSLKPEDTAVYYCAATLRWQDGYWGQGTQVTVSS”, “low polyreactivity”.
With “QVQLVESGGGLVQAGGSLRLSCAASGSTFVVYAMGWYRQAPGKERELVASISSGDSTTYADSVKGRFTISRDNAKNTVYLQMNSLKPEDTAVYYCNADYAYYLDVYSPYDSWGQGTQVTVSS”, the “polyreactivity (PSR sort gate)” value is reported as “low polyreactivity”.
In the case of “QVQLVESGGGLVQAGGSLRLSCAASGSTFVWYAMGWYRQAPGKERELVAAISSGGSTNYADSVKGRFTISRDNAKNTVYLQMNSLKPEDTAVYYCAAKAYFSSYWRWRGAMDHWGQGTQVTVSS” it was “low polyreactivity”; in that of “QVQLVESGGGLVQAGGSLRLSCAASGSTFVYAMAWSRQAPGKERELVAAIRLRSGSTYYADSVKGRFTISRDNAKNTVYLQMNSLKPEDTAVYYCAAAIQSSKVSVKFGYWGQGTQVTVSS”, “high polyreactivity”.
The value for “QVQLVESGGGLVQAGGSLRLSCAASGSTFVYAMGWYRQAPGKERELVAAITTGDSTYYADSVKGRFTISRDNAKNTVYLQMNSLKPEDTAVYYCAAQWYTRYGEYGYWGQGTQVTVSS” was “low polyreactivity”.
In the case of “QVQLVESGGGLVQAGGSLRLSCAASGSTFVYNAMGGYSQAPGKERELGASISRGGGITYYADSVKGRFTISRDNAKNTVYLQMNSLKPEDTAVYYCAKTKGYRGHYYYWGQGTQVTVSS” it was “high polyreactivity”; in that of “QVQLVESGGGLVQAGGSLRLSCAASGSTFVYNAMGWYRQAPGKERELVAAITVIGGRTYYADSVKGRFTISRDNAKNTVYLQMNSLKPEDTAVYYCNADATESIGYYDEYEYWGQGTQVTVSS”, “low polyreactivity”.
On to “QVQLVESGGGLVQAGGSLRLSCAASGSTFVYNDMGWNRQAPGKEREFVAAITYSGSTYYADSVKGRFTISRDNAKNTVYLQMNSLKPEDTAVYYCAAEYVWRFEYWGQGTQVTVSS”, for which the “polyreactivity (PSR sort gate)” value is “low polyreactivity”.
For “QVQLVESGGGLVQAGGSLRLSCAASGSTFVYNTMGWSRQAPGKERELVADITWRGASTYYADSVKGRFTISRDNAKNTVYLQMNSLKPEDTAVYYCAADYYSATGSYAYDYWGQGTQVTVSS”, the “polyreactivity (PSR sort gate)” value was “low polyreactivity”.
The value for “QVQLVESGGGLVQAGGSLRLSCAASGSTFVYNVMGWYRQAPGKERELVAAITSGVRTYYADSVKGRFTISRDNAMNTVYLQMNSLKPEDTAVYYCATGLRYAKYYYWGQGTQVTVSS” was “high polyreactivity”; that for “QVQLVESGGGLVQAGGSLRLSCAASGSTFVYYAMGLYRQAPGKERELVAAITASGGGTYYADSVKGRFTISRDNAKNPVYLQMNSLKPEVTAVYYCNRGYDYWGQGTQVTVSS” was “low polyreactivity”.
Regarding “QVQLVESGGGLVQAGGSLRLSCAASGSTFVYYAMGWYRQAPGKEREFVAAISYSGGNTYYADSVKGRFTISRDNAMNTVYLQMNSLKPEDTAVYYCAAYYYYFYHKVIWYELDYWGQGTQVTVSS”, the “polyreactivity (PSR sort gate)” value was “low polyreactivity”.
In the case of “QVQLVESGGGLVQAGGSLRLSCAASGSTFVYYAMGWYRQAPGKERELVAAINYSSGSTYYADSVKGRFTISRDNAKNTVYLQMNSLKPEDTAVYYCATDLLYYQYYSDYDYWGQGTQVTVSS” it was “high polyreactivity”.
